Assay results from patent CN114057887A.
pIC50: −log10 of the molar value. Like-named read-outs stand apart in the source and are kept apart here.

Tests used:
[1] = target: RBD-Fc (义翘神州，40592-V05H) (SARS-CoV-2) (UniProt P0DTC2)
[2] = target: RBD-Fc (义翘神州，40592-V05H) (SARS-CoV-2) (UniProt P0DTC2); remark: listed apart in the source

hACE2-Fc融合蛋白 (人ACE2胞外区(ECD)与人IgG1的Fc片段的融合蛋白) (Fc fusion)
pIC50 [1]: 8.30
pIC50 [2]: 8.12
